Test results taken from the supplement of paper PMC5998384.

Columns and labels:
[1] = tested on: HeLa Kyoto; assay: solubility change mitosis vs G1/S (difference of NP-40 vs SDS log2 ratios) (log2 ratio difference); higher = more soluble in mitosis
[2] = tested on: HeLa Kyoto; assay: thermal stability score vs G1/S (z-score of summed log2 fold changes over temperatures); higher = more thermally stable than in G1/S
[3] = tested on: HeLa Kyoto; assay: solubility in G1/S (NP-40 vs SDS abundance) (log2 ratio); higher = more soluble; details: cell cycle stage: G1/S
[4] = tested on: HeLa Kyoto; assay: melting temperature (median over replicates), in situ; higher = more thermally stable
[5] = cell cycle stage: early G1 (4.5 h after nocodazole release)
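Wherever melting temperature (median over replicates), in situ is given: HeLa Kyoto cells synchronized by double thymidine or nocodazole block, proteins quantified by TMT10plex mass spectrometry, three independent biological replicates.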
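Wherever solubility change mitosis vs G1/S (difference of NP-40 vs SDS log2 ratios) is given: synchronized HeLa Kyoto cells (double thymidine block for G1/S, nocodazole release for mitosis), protein amounts in NP-40 versus SDS lysates quantified by mass spectrometry, three biological replicates.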
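Wherever solubility in G1/S (NP-40 vs SDS abundance) is given: HeLa Kyoto cells arrested at G1/S by double thymidine block, proteins quantified by TMT10plex mass spectrometry in mild NP-40 versus SDS extracts, three biological replicates.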
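Wherever thermal stability score vs G1/S (z-score of summed log2 fold changes over temperatures) is given: synchronized HeLa Kyoto cells, proteins quantified by TMT10plex mass spectrometry, three biological replicates, mitosis taken 0.5 h after nocodazole release, G1/S directly after double thymidine block.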

Row | Sequence | solubility change mitosis (log2) [1] | thermal stability score [2, 5] | thermal stability score ([2]; cell cycle stage: mitosis) | solubility in G1/S (log2) [3] | melting temperature ([4]; cell cycle stage: G1/S) [°C] | melting temperature ([4]; cell cycle stage: mitosis) [°C]
1 | MALRPGAGSGGGGAAGAGAGSAGGGGFMFPVAGGIRPPQAGLMPMQQQGFPMVSVMQPNMQGIMGMNYSSQMSQGPIAMQAGIPMGPMPAAGMPYLGQAPFLGMRPPGPQYTPDMQKQFAEEQQKRFEQQQKLLEEERKRRQFEEQKQKLRLLSSVKPKTGEKSRDDALEAIKGNLDGFSRDAKMHPTPASHPKKPGPSLEEKFLVSCDISTSGQEQIKLNTSEVGHKALGPGSSKKYPSLMASNGVAVDGCVSGTTTAEAENTSDQNLSIEESGVGVFPSQDPAQPRMPPWIYNESLVPDAYKKILETTMTPTGIDTAKLYPILMSSGLPRETLGQIWALANRTTPGKLTKEELYTVLAMIAVTQRGVPAMSPDALNQFPAAPIPTLSGFSMTLPTPVSQPTVIPSGPAGSMPLSLGQPVMGINLVGPVGGAAAQASSGFIPTYPANQVVKPEEDDFQDFQDASKSGSLDDSFSDFQELPASSKTSNSQHGNSAPSLLMPLPGTKALPSMDKYAVFKGIAADKSSENTVPPGDPGDKYSAFRELEQTAENKPLGESFAEFRSAGTDDGFTDFKTADSVSPLEPPTKDKTFPPSFPSGTIQQKQQTQVKNPLNLADLDMFSSVNCSSEKPLSFSAVFSTSKSVSTPQSTGSAATMTALAATKTSSLADDFGEFSLFGEYSGLAPVGEQDDFADFMAFSNSSISSEQKPDDKYDALKEEASPVPLTSNVGSTVKGGQNSTAASTKYDVFRQLSLEGSGLGVEDLKDNTPSGKSDDDFADFHSSKFSSINSDKSLGEKAVAFRHTKEDSASVKSLDLPSIGGSSVGKEDSEDALSVQFDMKLADVGGDLKHVMSDSSLDLPTVSGQHPPAADIEDLKYAAFGSYSSNFAVSTLTSYDWSDRDDATQGRKLSPFVLSAGSGSPSATSILQKKETSFGSSENITMTSLSKVTTFVSEDALPETTFPALASFKDTIPQTSEQKEYENRDYKDFTKQDLPTAERSQEATCPSPASSGASQETPNECSDDFGEFQSEKPKISKFDFLVATSQSKMKSSEEMIKSELATFDLSVQGSHKRSLSLGDKEISRSSPSPALEQPFRDRSNTLNEKPALPVIRDKYKDLTGEVEENERYAYEWQRCLGSALNVIKKANDTLNGISSSSVCTEVIQSAQGMEYLLGVVEVYRVTKRVELGIKATAVCSEKLQQLLKDIDKVWNNLIGFMSLATLTPDENSLDFSSCMLRPGIKNAQELACGVCLLNVDSRSRKEEKPAEEHPKKAFNSETDSFKLAYGGHQYHASCANFWINCVEPKPPGLVLPDLL [SYNRG] | -0.164 | 0.188 | 1.39 | 0.0486 | 49.9 | 49.7
2 | MALSDEPAAGGPEEEAEDETLAFGAALEAFGESAETRALLGRLREVHGGGAEREVALERFRVIMDKYQEQPHLLDPHLEWMMNLLLDIVQDQTSPASLVHLAFKFLYIITKVRGYKTFLRLFPHEVADVEPVLDLVTIQNPKDHEAWETRYMLLLWLSVTCLIPFDFSRLDGNLLTQPGQARMSIMDRILQIAESYLIVSDKARDAAAVLVSRFITRPDVKQSKMAEFLDWSLCNLARSSFQTMQGVITMDGTLQALAQIFKHGKREDCLPYAATVLRCLDGCRLPESNQTLLRKLGVKLVQRLGLTFLKPKVAAWRYQRGCRSLAANLQLLTQGQSEQKPLILTEDDDEDDDVPEGVERVIEQLLVGLKDKDTVVRWSAAKGIGRMAGRLPRALADDVVGSVLDCFSFQETDKAWHGGCLALAELGRRGLLLPSRLVDVVAVILKALTYDEKRGACSVGTNVRDAACYVCWAFARAYEPQELKPFVTAISSALVIAAVFDRDINCRRAASAAFQENVGRQGTFPHGIDILTTADYFAVGNRSNCFLVISVFIAGFPEYTQPMIDHLVTMKISHWDGVIRELAARALHNLAQQAPEFSATQVFPRLLSMTLSPDLHMRHGSILACAEVAYALYKLAAQENRPVTDHLDEQAVQGLKQIHQQLYDRQLYRGLGGQLMRQAVCVLIEKLSLSKMPFRGDTVIDGWQWLINDTLRHLHLISSHSRQQMKDAAVSALAALCSEYYMKEPGEADPAIQEELITQYLAELRNPEEMTRCGFSLALGALPGFLLKGRLQQVLTGLRAVTHTSPEDVSFAESRRDGLKAIARICQTVGVKAGAPDEAVCGENVSQIYCALLGCMDDYTTDSRGDVGTWVRKAAMTSLMDLTLLLARSQPELIEAHTCERIMCCVAQQASEKIDRFRAHAASVFLTLLHFDSPPIPHVPHRGELEKLFPRSDVASVNWSAPSQAFPRITQLLGLPTYRYHVLLGLVVSLGGLTESTIRHSTQSLFEYMKGIQSDPQALGSFSGTLLQIFEDNLLNERVSVPLLKTLDHVLTHGCFDIFTTEEDHPFAVKLLALCKKEIKNSKDIQKLLSGIAVFCEMVQFPGDVRRQALLQLCLLLCHRFPLIRKTTASQVYETLLTYSDVVGADVLDEVVTVLSDTAWDAELAVVREQRNRLCDLLGVPRPQLVPQPGAC [TBCD] | -0.154 | -0.177 | 0.431 | -0.194 | 50 | 50.2
3 | MALSKSMHARNRYKDKPPDFAYLASKYPDFKQHVQINLNGRVSLNFKDPEAVRALTCTLLREDFGLSIDIPLERLIPTVPLRLNYIHWVEDLIGHQDSDKSTLRRGIDIGTGASCIYPLLGATLNGWYFLATEVDDMCFNYAKKNVEQNNLSDLIKVVKVPQKTLLMDALKEESEIIYDFCMCNPPFFANQLEAKGVNSRNPRRPPPSSVNTGGITEIMAEGGELEFVKRIIHDSLQLKKRLRWYSCMLGKKCSLAPLKEELRIQGVPKVTYTEFCQGRTMRWALAWSFYDDVTVPSPPSKRRKLEKPRKPITFVVLASVMKELSLKASPLRSETAEGIVVVTTWIEKILTDLKVQHKRVPCGKEEVSLFLTAIENSWIHLRRKKRERVRQLREVPRAPEDVIQALEEKKPTPKESGNSQELARGPQERTPCGPALREGEAAAVEGPCPSQESLSQEENPEPTEDERSEEKGGVEVLESCQGSSNGAQDQEASEQFGSPVAERGKRLPGVAGQYLFKCLINVKKEVDDALVEMHWVEGQNRDLMNQLCTYIRNQIFRLVAVN [METTL16] | -0.2 | 1.61 | 2.17 | 0.161 | 50.2 | 50.8
4 | MALSRGLPRELAEAVAGGRVLVVGAGGIGCELLKNLVLTGFSHIDLIDLDTIDVSNLNRQFLFQKKHVGRSKAQVAKESVLQFYPKANIVAYHDSIMNPDYNVEFFRQFILVMNALDNRAARNHVNRMCLAADVPLIESGTAGYLGQVTTIKKGVTECYECHPKPTQRTFPGCTIRNTPSEPIHCIVWAKYLFNQLFGEEDADQEVSPDRADPEAAWEPTEAEARARASNEDGDIKRISTKEWAKSTGYDPVKLFTKLFKDDIRYLLTMDKLWRKRKPPVPLDWAEVQSQGEETNASDQQNEPQLGLKDQQVLDVKSYARLFSKSIETLRVHLAEKGDGAELIWDKDDPSAMDFVTSAANLRMHIFSMNMKSRFDIKSMAGNIIPAIATTNAVIAGLIVLEGLKILSGKIDQCRTIFLNKQPNPRKKLLVPCALDPPNPNCYVCASKPEVTVRLNVHKVTVLTLQDKIVKEKFAMVAPDVQIEDGKGTILISSEEGETEANNHKKLSEFGIRNGSRLQADDFLQDYTLLINILHSEDLGKDVEFEVVGDAPEKVGPKQAEDAAKSITNGSDDGAQPSTSTAQEQDDVLIVDSDEEDSSNNADVSEEERSRKRKLDEKENLSAKRSRIEQKEELDDVIALD [UBA2] | -0.204 | -0.2 | 0.883 | 0.146 | 52.2 | 52
5 | MALTRPVRLFSLVTRLLLAPRRGLTVRSPDEPLPVVRIPVALQRQLEQRQSRRRNLPRPVLVRPGPLLVSARRPELNQPARLTLGRWERAPLASQGWKSRRARRDHFSIERAQQEAPAVRKLSSKGSFADLGLEPRVLHALQEAAPEVVQPTTVQSSTIPSLLRGRHVVCAAETGSGKTLSYLLPLLQRLLGQPSLDSLPIPAPRGLVLVPSRELAQQVRAVAQPLGRSLGLLVRDLEGGHGMRRIRLQLSRQPSADVLVATPGALWKALKSRLISLEQLSFLVLDEADTLLDESFLELVDYILEKSHIAEGPADLEDPFNPKAQLVLVGATFPEGVGQLLNKVASPDAVTTITSSKLHCIMPHVKQTFLRLKGADKVAELVHILKHRDRAERTGPSGTVLVFCNSSSTVNWLGYILDDHKIQHLRLQGQMPALMRVGIFQSFQKSSRDILLCTDIASRGLDSTGVELVVNYDFPPTLQDYIHRAGRVGRVGSEVPGTVISFVTHPWDVSLVQKIELAARRRRSLPGLASSVKEPLPQAT [DDX28] | 0.0712 | -0.0521 | 1.54 | -0.336 | 50 | 50.9
6 | MAMAYLAWRLARRSCPSSLQVTSFPVVQLHMNRTAMRASQKDFENSMNQVKLLKKDPGNEVKLKLYALYKQATEGPCNMPKPGVFDLINKAKWDAWNALGSLPKEAARQNYVDLVSSLSPSLESSSQVEPGTDRKSTGFETLVVTSEDGITKIMFNRPKKKNAINTEMYHEIMRALKAASKDDSIITVLTGNGDYYSSGNDLTNFTDIPPGGVEEKAKNNAVLLREFVGCFIDFPKPLIAVVNGPAVGISVTLLGLFDAVYASDRATFHTPFSHLGQSPEGCSSYTFPKIMSPAKATEMLIFGKKLTAGEACAQGLVTEVFPDSTFQKEVWTRLKAFAKLPPNALRISKEVIRKREREKLHAVNAEECNVLQGRWLSDECTNAVVNFLSRKSKL [ECI2] | -0.0636 | -0.204 | 0.871 | 0.369 | 53.6 | 53.2
7 | MAMDQVNALCEQLVKAVTVMMDPNSTQRYRLEALKFCEEFKEKCPICVPCGLRLAEKTQVAIVRHFGLQILEHVVKFRWNGMSRLEKVYLKNSVMELIANGTLNILEEENHIKDALSRIVVEMIKREWPQHWPDMLIELDTLSKQGETQTELVMFILLRLAEDVVTFQTLPPQRRRDIQQTLTQNMERIFSFLLNTLQENVNKYQQVKTDTSQESKAQANCRVGVAALNTLAGYIDWVSMSHITAENCKLLEILCLLLNEQELQLGAAECLLIAVSRKGKLEDRKPLMVLFGDVAMHYILSAAQTADGGGLVEKHYVFLKRLCQVLCALGNQLCALLGADSDVETPSNFGKYLESFLAFTTHPSQFLRSSTQMTWGALFRHEILSRDPLLLAIIPKYLRASMTNLVKMGFPSKTDSPSCEYSRFDFDSDEDFNAFFNSSRAQQGEVMRLACRLDPKTSFQMAGEWLKYQLSTFLDAGSVNSCSAVGTGEGSLCSVFSPSFVQWEAMTLFLESVITQMFRTLNREEIPVNDGIELLQMVLNFDTKDPLILSCVLTNVSALFPFVTYRPEFLPQVFSKLFSSVTFETVEESKAPRTRAVRNVRRHACSSIIKMCRDYPQLVLPNFDMLYNHVKQLLSNELLLTQMEKCALMEALVLISNQFKNYERQKVFLEELMAPVASIWLSQDMHRVLSDVDAFIAYVGTDQKSCDPGLEDPCGLNRARMSFCVYSILGVVKRTCWPTDLEEAKAGGFVVGYTSSGNPIFRNPCTEQILKLLDNLLALIRTHNTLYAPEMLAKMAEPFTKALDMLDAEKSAILGLPQPLLELNDSPVFKTVLERMQRFFSTLYENCFHILGKAGPSMQQDFYTVEDLATQLLSSAFVNLNNIPDYRLRPMLRVFVKPLVLFCPPEHYEALVSPILGPLFTYLHMRLSQKWQVINQRSLLCGEDEAADENPESQEMLEEQLVRMLTREVMDLITVCCVSKKGADHSSAPPADGDDEEMMATEVTPSAMAELTDLGKCLMKHEDVCTALLITAFNSLAWKDTLSCQRTTSQLCWPLLKQVLSGTLLADAVTWLFTSVLKGLQMHGQHDGCMASLVHLAFQIYEALRPRYLEIRAVMEQIPEIQKDSLDQFDCKLLNPSLQKVADKRRKDQFKRLIAGCIGKPLGEQFRKEVHIKNLPSLFKKTKPMLETEVLDNDGGGLATIFEP [XPO5] | -0.175 | 0.753 | 2.34 | -0.158 | 49 | 48.9
